Laboratory results from doi:10.1101/2020.08.05.237479.

Target: MBP-NES^MVM
Test: MST

Substance “yCRM1a C152S/C539T (from UniProt P30822 1-1055) (receptor)” has a fold weaker affinity than the C152/C539/C1022 triple mutant of 5 fold.
